Biological target: HA-Ras (wild-type) (UniProt P01112)
Sequence of UniProt P01112 (P01112 whole entry, looked up): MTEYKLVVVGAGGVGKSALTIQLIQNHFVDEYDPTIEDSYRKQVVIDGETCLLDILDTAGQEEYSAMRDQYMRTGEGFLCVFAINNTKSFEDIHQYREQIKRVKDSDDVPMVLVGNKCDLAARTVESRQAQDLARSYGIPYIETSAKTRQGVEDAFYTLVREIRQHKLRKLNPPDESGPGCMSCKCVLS

With Flag-SOS the “amount of GTP-bound HA-Ras (32-PO4 labeling, a-HA immunoprecipitation, TLC)” value was “expression of Flag-SOS significantly increased the amount of GTP-bound HA-Ras”.
